This note sets out measurements from US20240325562A1 (LINXIS B V, published 2024).

Experiment [1] has as its target T1, full-length human PDGFRB on cells (human, UniProt P09619 33-1106).
T1 construct: whole, on cells; also called hPDGFRB; SCC-hPDGFRB
Briefly: binding assay on cells transgenically expressing human PDGFRB, FIG. 15C.

Experiment [2] addresses T2, rat serum albumin (rat, UniProt P02770 25-608).
T2 construct: also called RSA
Briefly: binding assay of the IRDye800 conjugate on serum albumin.

Experiment [3] concerns the target T3, human serum albumin (human, UniProt P02768 25-609).
T3 construct: also called HSA
The experiment is described as above.

Experiment [4] has as its target T4, mouse serum albumin (mouse, UniProt P07724 25-608).
T4 construct: also called MSA
The description is as above.

Experiment [5] has as its target T5, murine IGF2R on cells (murine, UniProt Q07113 36-2483).
T5 construct: whole, on cells; also called mIGF2R
The experiment can be described thus: binding assay on SCC cells transgenically expressing murine IGF2R. Here is the method:
(§1) To examine whether 13F11-13E8 is cross-reactive against rodent IGF2R, the construct as well as its corresponding monomeric VHHs were conjugated to IRDye800CW (F11E8-IRD800, conjugation method as described in example 10.2) and the binding affinity was determined using a binding assay on SCC cells that transgenically expressed either murine IGF2R (mIGF2R), rIGF2R, or hIGF2R (FIGS. 12A-D).

Experiment [6] addresses T6, human IGF2R on cells (human, UniProt P11717 41-2491). The experiment can be described thus: cell-based or functional assay.
For experiment [7], the target named is T7, rat IGF2R on cells (rat, UniProt A0A8I6GLL6 43-2479). Briefly: cell-based or functional assay.
For experiment [8], the target named is T6, human IGF2R on cells. The experiment can be described thus: binding assay on SCC cells transgenically expressing human IGF2R. On the procedure:
as §1

Experiment [9] has as its target T7, rat IGF2R on cells. Briefly: binding assay on SCC cells transgenically expressing rat IGF2R. On the procedure: as §1
Experiment [10] concerns the target T8, recombinant hPDGFRB ectodomain (human, UniProt P09619 33-532).
T8 construct: extracellular domain; also called hPDGFRB-ECD; human PDGFRB ECD
Briefly: competition ELISA on human PDGFRB ECD, IRDye800-SP26P as reporter and unconjugated SP26P as competitor. (An ELISA detects its analyte on a solid surface through an enzyme-linked reagent.)

Where only a bound is given, the exact number is not on record here.

T6 sequence (P11717 41-2491): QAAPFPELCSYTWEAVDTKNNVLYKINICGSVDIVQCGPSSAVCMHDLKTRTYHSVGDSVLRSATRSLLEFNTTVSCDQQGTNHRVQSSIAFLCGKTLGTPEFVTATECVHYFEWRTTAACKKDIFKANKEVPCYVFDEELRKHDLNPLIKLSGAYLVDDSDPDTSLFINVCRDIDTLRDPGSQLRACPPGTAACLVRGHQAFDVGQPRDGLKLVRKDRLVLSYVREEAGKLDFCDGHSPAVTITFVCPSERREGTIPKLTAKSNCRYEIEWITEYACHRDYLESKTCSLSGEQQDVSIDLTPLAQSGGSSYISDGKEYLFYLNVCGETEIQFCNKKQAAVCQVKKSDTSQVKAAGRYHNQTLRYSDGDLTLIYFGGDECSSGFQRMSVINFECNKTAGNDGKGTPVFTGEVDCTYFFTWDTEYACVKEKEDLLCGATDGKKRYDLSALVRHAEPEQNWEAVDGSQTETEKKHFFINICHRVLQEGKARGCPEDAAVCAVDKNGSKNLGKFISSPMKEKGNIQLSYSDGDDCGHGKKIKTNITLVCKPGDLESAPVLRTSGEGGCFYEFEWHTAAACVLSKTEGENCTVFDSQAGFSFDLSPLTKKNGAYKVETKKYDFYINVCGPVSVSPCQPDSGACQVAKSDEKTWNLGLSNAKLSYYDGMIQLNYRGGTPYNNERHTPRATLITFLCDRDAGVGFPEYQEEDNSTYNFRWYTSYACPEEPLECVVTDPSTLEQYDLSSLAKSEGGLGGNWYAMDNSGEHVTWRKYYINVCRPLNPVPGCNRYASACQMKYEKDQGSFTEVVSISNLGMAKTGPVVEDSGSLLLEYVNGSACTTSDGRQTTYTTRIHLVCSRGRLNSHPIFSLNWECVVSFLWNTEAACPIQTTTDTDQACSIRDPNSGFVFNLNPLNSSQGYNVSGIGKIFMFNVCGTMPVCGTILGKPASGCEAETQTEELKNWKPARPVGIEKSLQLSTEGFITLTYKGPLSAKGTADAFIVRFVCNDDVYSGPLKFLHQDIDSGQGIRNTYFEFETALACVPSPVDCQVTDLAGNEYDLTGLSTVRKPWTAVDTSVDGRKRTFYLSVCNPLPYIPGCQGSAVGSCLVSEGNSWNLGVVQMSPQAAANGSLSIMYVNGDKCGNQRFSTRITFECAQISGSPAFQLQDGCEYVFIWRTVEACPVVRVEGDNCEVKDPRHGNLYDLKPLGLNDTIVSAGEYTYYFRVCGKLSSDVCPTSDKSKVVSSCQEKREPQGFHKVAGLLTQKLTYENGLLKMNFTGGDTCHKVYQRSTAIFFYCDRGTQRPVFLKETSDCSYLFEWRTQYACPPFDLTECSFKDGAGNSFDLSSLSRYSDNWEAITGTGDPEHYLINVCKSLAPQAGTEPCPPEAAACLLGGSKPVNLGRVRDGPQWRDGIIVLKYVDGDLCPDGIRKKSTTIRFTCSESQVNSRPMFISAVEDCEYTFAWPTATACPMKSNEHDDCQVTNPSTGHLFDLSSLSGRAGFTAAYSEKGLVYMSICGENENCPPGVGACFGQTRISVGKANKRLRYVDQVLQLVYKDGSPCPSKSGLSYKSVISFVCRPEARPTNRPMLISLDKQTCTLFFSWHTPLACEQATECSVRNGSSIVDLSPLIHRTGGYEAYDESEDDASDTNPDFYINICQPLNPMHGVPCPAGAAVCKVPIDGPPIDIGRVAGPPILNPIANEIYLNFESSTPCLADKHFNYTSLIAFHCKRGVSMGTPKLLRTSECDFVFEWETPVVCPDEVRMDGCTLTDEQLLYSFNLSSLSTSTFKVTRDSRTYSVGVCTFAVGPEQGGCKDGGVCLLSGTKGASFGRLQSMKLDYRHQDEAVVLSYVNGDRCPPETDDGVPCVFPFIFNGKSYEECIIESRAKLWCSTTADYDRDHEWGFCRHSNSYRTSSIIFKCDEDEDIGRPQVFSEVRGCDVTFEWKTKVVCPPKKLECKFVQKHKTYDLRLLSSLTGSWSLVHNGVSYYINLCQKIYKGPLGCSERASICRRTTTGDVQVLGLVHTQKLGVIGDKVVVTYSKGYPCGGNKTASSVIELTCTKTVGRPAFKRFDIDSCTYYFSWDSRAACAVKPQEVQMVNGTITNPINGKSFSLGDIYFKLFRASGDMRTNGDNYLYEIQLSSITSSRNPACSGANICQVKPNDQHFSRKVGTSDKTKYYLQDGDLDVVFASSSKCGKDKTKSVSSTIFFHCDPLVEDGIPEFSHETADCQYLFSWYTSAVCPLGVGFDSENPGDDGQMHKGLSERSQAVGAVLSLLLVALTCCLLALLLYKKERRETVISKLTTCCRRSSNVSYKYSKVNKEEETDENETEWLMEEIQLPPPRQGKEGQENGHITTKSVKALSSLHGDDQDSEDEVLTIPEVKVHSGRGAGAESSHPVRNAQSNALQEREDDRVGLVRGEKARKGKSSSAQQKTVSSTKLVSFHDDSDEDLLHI
T5 sequence (Q07113 36-2483): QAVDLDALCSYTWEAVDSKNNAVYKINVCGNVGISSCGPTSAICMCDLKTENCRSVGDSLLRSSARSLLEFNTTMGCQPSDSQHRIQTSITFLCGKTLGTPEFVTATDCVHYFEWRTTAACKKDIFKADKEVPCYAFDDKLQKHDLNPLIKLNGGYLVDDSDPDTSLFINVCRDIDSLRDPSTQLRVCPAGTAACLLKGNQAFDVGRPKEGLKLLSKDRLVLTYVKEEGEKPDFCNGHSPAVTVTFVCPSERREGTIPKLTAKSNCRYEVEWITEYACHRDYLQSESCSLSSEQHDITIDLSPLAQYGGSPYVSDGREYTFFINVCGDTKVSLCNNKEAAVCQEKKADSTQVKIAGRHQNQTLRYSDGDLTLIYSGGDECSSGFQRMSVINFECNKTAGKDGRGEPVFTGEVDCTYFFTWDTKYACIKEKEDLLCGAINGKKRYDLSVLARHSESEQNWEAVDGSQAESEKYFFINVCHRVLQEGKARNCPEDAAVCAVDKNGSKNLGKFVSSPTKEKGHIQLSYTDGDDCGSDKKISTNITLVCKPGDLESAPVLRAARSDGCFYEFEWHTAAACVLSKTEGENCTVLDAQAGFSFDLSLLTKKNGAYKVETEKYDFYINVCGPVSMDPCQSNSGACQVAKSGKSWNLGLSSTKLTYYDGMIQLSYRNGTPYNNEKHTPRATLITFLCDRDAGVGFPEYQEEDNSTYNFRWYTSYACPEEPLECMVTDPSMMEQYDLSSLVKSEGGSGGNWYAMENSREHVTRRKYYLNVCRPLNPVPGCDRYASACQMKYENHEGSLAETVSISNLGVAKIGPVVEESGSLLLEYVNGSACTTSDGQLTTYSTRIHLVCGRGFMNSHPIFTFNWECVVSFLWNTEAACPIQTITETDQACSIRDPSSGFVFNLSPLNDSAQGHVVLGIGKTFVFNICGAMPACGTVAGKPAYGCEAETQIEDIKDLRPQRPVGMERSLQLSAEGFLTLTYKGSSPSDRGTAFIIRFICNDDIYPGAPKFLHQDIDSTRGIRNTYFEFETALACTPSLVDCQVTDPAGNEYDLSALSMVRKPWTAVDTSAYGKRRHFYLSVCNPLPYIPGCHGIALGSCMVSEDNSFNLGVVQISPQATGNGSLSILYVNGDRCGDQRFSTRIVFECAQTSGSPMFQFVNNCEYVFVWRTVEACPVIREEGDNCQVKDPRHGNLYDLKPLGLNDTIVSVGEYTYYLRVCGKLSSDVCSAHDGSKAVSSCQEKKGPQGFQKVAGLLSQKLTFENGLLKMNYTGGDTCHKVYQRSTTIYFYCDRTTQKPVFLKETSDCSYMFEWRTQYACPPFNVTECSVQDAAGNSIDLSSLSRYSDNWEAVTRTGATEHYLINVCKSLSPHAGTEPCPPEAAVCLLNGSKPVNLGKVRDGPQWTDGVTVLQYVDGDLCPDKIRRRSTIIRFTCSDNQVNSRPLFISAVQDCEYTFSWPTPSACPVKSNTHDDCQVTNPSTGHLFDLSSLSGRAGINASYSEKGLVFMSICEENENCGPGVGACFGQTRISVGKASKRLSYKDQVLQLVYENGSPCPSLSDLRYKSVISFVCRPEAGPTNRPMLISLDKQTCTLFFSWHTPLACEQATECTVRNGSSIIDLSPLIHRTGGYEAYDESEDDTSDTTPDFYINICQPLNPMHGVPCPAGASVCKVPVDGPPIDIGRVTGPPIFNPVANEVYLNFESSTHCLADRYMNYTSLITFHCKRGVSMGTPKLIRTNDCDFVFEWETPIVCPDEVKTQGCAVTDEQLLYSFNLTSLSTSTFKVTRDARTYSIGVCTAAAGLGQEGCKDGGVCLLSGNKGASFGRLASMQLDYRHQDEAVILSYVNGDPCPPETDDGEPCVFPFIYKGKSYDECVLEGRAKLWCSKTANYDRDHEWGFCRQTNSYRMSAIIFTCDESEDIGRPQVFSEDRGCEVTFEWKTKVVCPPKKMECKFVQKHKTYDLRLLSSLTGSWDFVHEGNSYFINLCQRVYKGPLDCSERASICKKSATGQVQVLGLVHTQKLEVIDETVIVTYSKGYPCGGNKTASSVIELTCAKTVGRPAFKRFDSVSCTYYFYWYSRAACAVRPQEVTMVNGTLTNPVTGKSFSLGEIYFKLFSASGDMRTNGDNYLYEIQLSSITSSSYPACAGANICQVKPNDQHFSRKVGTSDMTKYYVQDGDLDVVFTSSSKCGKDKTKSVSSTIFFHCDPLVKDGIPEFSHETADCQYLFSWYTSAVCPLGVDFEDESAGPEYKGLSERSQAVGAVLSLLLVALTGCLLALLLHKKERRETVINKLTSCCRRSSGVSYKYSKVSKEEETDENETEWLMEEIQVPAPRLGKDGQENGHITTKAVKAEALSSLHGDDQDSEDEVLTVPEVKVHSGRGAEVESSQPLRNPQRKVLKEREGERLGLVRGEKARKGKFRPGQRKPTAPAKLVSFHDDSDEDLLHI

B1: SP02P-SP26P (bispecific antibody, not shown: small tags and cut ends)
chain: EVQLVESGGGLVQAGGSLRLSCAASESISSIEQMGWFRQAPGKQRALVAINTYGGRTVYTNSVEGRFTMSRDSAKNMVYLQMTSLEPEDTAVYYCYAQTTAWRGGVWGQGTQVTVSSGGGGSGGGGSGGGGSEVQLVESGGGLVQAGGSLRLSCAASGRSFSSSVMGWFRQTPGKEREFVAATRWTAASTHYADSVKGRFTISRDHAENAVFLQMNSLKPEDTAVYYCAAGNYLDTAQYRYNYWGQGTQVTVSS
notes: also called SP02-SP26P
The Kd is the equilibrium constant for the complex coming apart. Read a low Kd as higher affinity. As for B1, the Kd in experiment [1] was < 5 nM.

B2: 13F11-13E8-ABD-IRD800 (other)
chain: EVQLVESGGRLVQPGDSLRLSCAASGRTFSDNAMGWFRQAPGKERRFVAGISWAGGSTYYSDSVKGRFTISRDNAKNTVYLQMNSLKPEDTAVYYCAAGLRAWVQRMPKDYNYWGQGTQVTVSSGGGGSGGGGSGGGGSEVQLVESGGGLVQAGGSLRLSCAASRSISPMGWYRQAPGKQRELVAIMPSSGPPIYADSVQGRFTISRDNAKNTVYLQMNSLKPEDTAVYYCNVGGGYWGQGTQVTVSSLAEAKVLANRELDKYGVSDYYKNLINNAKTVEGVKALIDEILAALP
B2: the Kd was 30 nM in [2], ~200 nM in experiment [3] and ~200 nM in experiment [4].

B3: 13F11-13E8-IRD800 (bispecific antibody)
chain: EVQLVESGGRLVQPGDSLRLSCAASGRTFSDNAMGWFRQAPGKERRFVAGISWAGGSTYYSDSVKGRFTISRDNAKNTVYLQMNSLKPEDTAVYYCAAGLRAWVQRMPKDYNYWGQGTQVTVSSGGGGSGGGGSGGGGSEVQLVESGGGLVQAGGSLRLSCAASRSISPMGWYRQAPGKQRELVAIMPSSGPPIYADSVQGRFTISRDNAKNTVYLQMNSLKPEDTAVYYCNVGGGYWGQGTQVTVSS
modifications: IRDye 800CW coupled by maleimide to the C-terminal free cysteine, which is not in the letters
notes: Biparatopic tandem VHH; also called F11E8-IRD800; IRDye800-conjugated 13F11-13E8 (F11E8); not shown: C-terminal tail: free Cys, possible thrombin site and His6 tag
B3: the Kd in experiment [5], in experiment [8] and in experiment [9] was < 10 nM throughout. Moreover, the “endocytic rate constant, ke” value in [6] was ~1.5 min⁻¹; in experiment [7], ~0.7 min⁻¹.

B4: SP26P (VHH)
VHH: EVQLVESGGGLVQAGGSLRLSCAASGRSFSSSVMGWFRQTPGKEREFVAATRWTAASTHYADSVKGRFTISRDHAENAVFLQMNSLKPEDTAVYYCAAGNYLDTAQYRYNYWGQGTQVTVSS
modifications: In the competition assay the reporter copy carried IRDye800 on the C-terminal cysteine, which is not in the letters.
notes: From libraries 3 and 4 (raised against rPDGFRB)
Regarding B4, in experiment [10], the binding result is recorded as “binds”.
